Experimental data taken from PMC12262048, “Nodal modulator (NOMO) is a force-bearing transmembrane protein required for muscle differentiation” (The Journal of Cell Biology, 2025).
Residue numbers refer to the chain shown, from its start. Names and notes keep the numbering of the source. Values joined by “and” are separate entries in the source; they are usually repeats but may differ in a detail not shown here. Equal values may be shown once.

T1: His6-Ig 1–2 (NOMO1 Ig-like domains 1–2) (human)
T1 chain: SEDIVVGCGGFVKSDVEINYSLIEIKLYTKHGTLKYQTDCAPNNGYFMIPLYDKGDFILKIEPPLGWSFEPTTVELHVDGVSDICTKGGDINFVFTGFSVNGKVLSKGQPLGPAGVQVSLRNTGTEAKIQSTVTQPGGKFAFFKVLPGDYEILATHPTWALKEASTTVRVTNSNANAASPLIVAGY

T2: His6-Ig 10–11 (NOMO1 Ig-like domains 10–11) (human)
T2 chain: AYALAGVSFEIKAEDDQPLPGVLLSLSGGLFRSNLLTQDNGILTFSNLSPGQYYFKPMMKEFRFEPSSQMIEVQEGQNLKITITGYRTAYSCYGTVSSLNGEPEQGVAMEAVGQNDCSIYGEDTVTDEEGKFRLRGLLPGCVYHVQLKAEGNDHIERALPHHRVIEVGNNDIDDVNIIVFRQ

B1: FL WT NOMO (NOMO1^WT-FLAG) (natural protein, human, UniProt Q15155 32-1222, looked up)
chain: SEDIVVGCGGFVKSDVEINYSLIEIKLYTKHGTLKYQTDCAPNNGYFMIPLYDKGDFILKIEPPLGWSFEPTTVELHVDGVSDICTKGGDINFVFTGFSVNGKVLSKGQPLGPAGVQVSLRNTGTEAKIQSTVTQPGGKFAFFKVLPGDYEILATHPTWALKEASTTVRVTNSNANAASPLIVAGYNVSGSVRSDGEPMKGVKFLLFSSLVTKEDVLGCNVSPVPGFQPQDESLVYLCYTVSREDGSFSFYSLPSGGYTVIPFYRGERITFDVAPSRLDFTVEHDSLKIEPVFHVMGFSVTGRVLNGPEGDGVPEAVVTLNNQIKVKTKADGSFRLENITTGTYTIHAQKEHLYFETVTIKIAPNTPQLADIIATGFSVCGQISIIRFPDTVKQMNKYKVVLSSQDKDKSLVTVETDAHGSFCFKAKPGTYKVQVMVPEAETRAGLTLKPQTFPLTVTNRPMMDVAFVQFLASVSGKVSCLDTCGDLLVTLQSLSRQGEKRSLQLSGKVNAMTFTFDNVLPGKYKISIMHEDWCWKNKSLEVEVLEDDMSAVEFRQTGYMLRCSLSHAITLEFYQDGNGRENVGIYNLSKGVNRFCLSKPGVYKVTPRSCHRFEQAFYTYDTSSPSILTLTAIRHHVLGTITTDKMMDVTVTIKSSIDSEPALVLGPLKSVQELRREQQLAEIEARRQEREKNGNEEGEERMTKPPVQEMVDELQGPFSYDFSYWARSGEKITVTPSSKELLFYPPSMEAVVSGESCPGKLIEIHGKAGLFLEGQIHPELEGVEIVISEKGASSPLITVFTDDKGAYSVGPLHSDLEYTVTSQKEGYVLTAVEGTIGDFKAYALAGVSFEIKAEDDQPLPGVLLSLSGGLFRSNLLTQDNGILTFSNLSPGQYYFKPMMKEFRFEPSSQMIEVQEGQNLKITITGYRTAYSCYGTVSSLNGEPEQGVAMEAVGQNDCSIYGEDTVTDEEGKFRLRGLLPGCVYHVQLKAEGNDHIERALPHHRVIEVGNNDIDDVNIIVFRQINQFDLSGNVITSSEYLPTLWVKLYKSENLDNPIQTVSLGQSLFFHFPPLLRDGENYVVLLDSTLPRSQYDYILPQVSFTAVGYHKHITLIFNPTRKLPEQDIAQGSYIALPLTLLVLLAGYNHDKLIPLLLQLTSRLQGVRALGQAASDNSGPEDAKRQAKKQKTRRT
notes: NOMO1 (nodal modulator 1), human, full length; Results and legend call it NOMO-FLAG, the methods Flag-NOMO^WT: the end of the tag is not clear; also called WT NOMO-FLAG; Flag-NOMO^WT; source: Expi293F, transfected, purified (anti-FLAG M2 beads, FLAG peptide elution, SEC) in DDM
B2: NOMOr^4-Mut-FLAG (FL NOMO1 K66E, D70K, D121K, K931E) (natural protein, human, UniProt Q15155 32-1222, looked up)
chain: B1 chain with K35E, D39K, D90K, K900E
notes: NOMO1, human, full length, four charge-reversal mutations at the Ig 1/10/11 interface; Results and legend call it -FLAG, the methods Flag-NOMO^4-Mut: the end of the tag is not clear; also called NOMO^4Mut-FLAG; Flag-NOMO^4-Mut; source: Expi293F, transfected, purified (anti-FLAG M2 beads, FLAG peptide elution, SEC) in DDM
B3: His6-Ig 10–11 (NOMO1 Ig-like domains 10–11) (domain or fragment)
chain: T2 chain
modifications: N-terminal His6 tag omitted; limits not given, set from Ig fold boundaries and the ~20 kD size of Ig 10-11 / N-terminal His6 tag omitted; limits not given, taken from signal peptide end to the Ig
B4: His6-Ig 1–2 (NOMO1 Ig-like domains 1–2) (domain or fragment)
chain: T1 chain
modifications: N-terminal His6 tag omitted; limits not given, taken from signal peptide end to the Ig 2/Ig 3 boundary N-terminal His6 tag omitted; limits not given, set from Ig fold boundaries and the ~20 kD size of Ig 10-11

Assays:
[1] = biological target: the molecule itself; experiment: SEC-MALS; room temperature; 50 mM MES pH 6.0, 150 mM KCl, 5 mM CaCl2, 5 mM MgCl2, 2% glycerol, 0.05% DDM; 1–1.5 mg/ml; molar mass corrected for detergent
[2] = biological target: T1, His6-Ig 1–2 (NOMO1 Ig-like domains 1–2); experiment: ITC; VP-ITC, 25°C; 300 µM His6-Ig 10–11 injected from the syringe into the cell with 20 µM His6-Ig 1–2 or His6-Ig 1–2^3-Mut; 50 mM Tris-HCl pH 7.5, 100 mM NaCl, 5 mM MgCl2, 5 mM CaCl2; n = 3; details: both partners purified
[3] = biological target: T2, His6-Ig 10–11 (NOMO1 Ig-like domains …); experiment: ITC

| Binder | stoichiometry N [1] | other results |
| --- | --- | --- |
| B1 | 2 | – |
| B2 | 2 | – |
| B3 | – | Kd [2]: 1830 ± 840 nM |
| B4 | – | Kd [3]: 2800 nM and 1400 nM and 1300 nM |
